# Laboratory results taken from patent US20030134774A1, “Methods for inhibiting cardiac disorders” (priority 2001, published 2003).
# T1: PKC-ε (Rattus norvegicus, UniProt P09216)
# T1 construct: endogenous in cells; host or cells: cultured neonatal rat ventricular cardiomyocytes
# T1 sequence (P09216 1-737): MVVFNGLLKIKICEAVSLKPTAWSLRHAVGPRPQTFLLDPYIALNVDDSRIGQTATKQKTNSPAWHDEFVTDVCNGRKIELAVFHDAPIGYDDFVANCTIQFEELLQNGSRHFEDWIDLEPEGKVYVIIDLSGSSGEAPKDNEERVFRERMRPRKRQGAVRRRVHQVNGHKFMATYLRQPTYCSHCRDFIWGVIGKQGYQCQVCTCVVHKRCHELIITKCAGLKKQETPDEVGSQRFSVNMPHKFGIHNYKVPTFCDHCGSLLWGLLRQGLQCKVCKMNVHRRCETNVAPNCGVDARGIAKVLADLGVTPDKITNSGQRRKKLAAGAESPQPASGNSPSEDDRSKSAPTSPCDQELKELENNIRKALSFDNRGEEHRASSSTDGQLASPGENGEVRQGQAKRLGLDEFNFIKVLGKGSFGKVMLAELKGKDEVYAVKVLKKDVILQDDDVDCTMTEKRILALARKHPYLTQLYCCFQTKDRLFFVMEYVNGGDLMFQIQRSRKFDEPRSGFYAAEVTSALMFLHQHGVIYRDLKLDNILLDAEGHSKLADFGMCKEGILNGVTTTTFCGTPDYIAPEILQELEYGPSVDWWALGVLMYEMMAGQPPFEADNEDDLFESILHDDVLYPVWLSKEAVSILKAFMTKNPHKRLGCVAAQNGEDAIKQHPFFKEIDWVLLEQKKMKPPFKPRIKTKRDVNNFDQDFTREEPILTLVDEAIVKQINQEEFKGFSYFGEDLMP
# B1: rPMT: recombinant Pasteurella multocida toxin, a Gαq agonist used as pharmacological probe (protein, UniProt P17452 1-1285, looked up)
# Dermonecrotic toxin: MKTKHFFNSDFTVKGKSADEIFRRLCTDHPDKQLNNVKWKEVFINRFGQMMLDTPNPRKIVEKIINEGLEKQGLKNIDPETTYFNIFSSSDSSDGNVFHYNSLSESYRVTDACLMNIFVERYFDDWDLLNSLASNGIYSVGKEGAYYPDHDYGPEYNPVWGPNEQIYHSRVIADILYARSVWDEFKKYFMEYWQKYAQLYTEMLSDTFLAMAIQQYTRQTLTDEGFLMVCNTYYGNKEEVQITLLDIYGYPSTDIICIEQKGLPTPKVILYIPGGTQPFVEFLNTDDLKQWIAWHLKDNKHMVAFRKHFSLKQRQEGETFTGIDKALQYIAEESPEWPANKYILYNPTHLETENLFNIMMKRTEQRMLEDSDVQIRSNSEATRDYALSLLETFISQLSAIDMLVPAVGIPINFALSATALGLSSDIVVNGDSYEKRKYGIGSLVQSALFTGINLIPVISETAEILSSFSRTEEDIPAFFTEEQALAQRFEIVEEELHSISPDDPPREITDENLHKIRLVRLNNENQPLVVLRRLGGNKFIRIEPITFQEIKGSLVSEVINPVTNKTYYVSNAKLLGGSPYSPFRIGLEGVWTPEVLKARASVIGKPIGESYKRILAKLQRIHNSNILDERQGLMHELMELIDLYEESQPSSERLNAFRELRTQLEKALYLPEMEALKKQILQIPNKGSGAARFLLRTAMNEMAGKTSESTADLIRFALQDTVISAPFRGYAGAIPEAIDFPVKYVIEDISVFDKIQTNYWELPAYESWNEGSNSALLPGLLRESQSKGMLSKCRIIENSLYIGHSYEEMFYSISPYSNQVGGPYELYPFTFFSMLQEVQGDLGFEQAFATRNFFNTLVSDRLSLMENTMLLTESFDYTPWDAIYGDINYDEQFAAMSINERIEKCMNTYRGVAFQNSSKSIDFFLNNLTTFIDNGLTEIAISDLPYDIVQQEISQFLQGSNEWKTLDAMLFNLDKGDINGAFRKLLQSAKDNNIKFRAIGHSDNSVPPFNNPYKSLYYKGNIIAEAIEKLDREGQKFVVFADSSLLNSTPGTGRPMPGLVQYLKIPATVVDSDGAWQFLPDVASSRVPIEVTELENWQVLTPPQGKILGLKQFKLTAGFPTEQSRLPLLENSVSEDLREELMQKIDAIKNDVKMNSLVCMEAGSCDSVSPKVAARLKDMGLEAGMGASITWWRREGGMEFSHQMHTTASFKFAGKEFAVDASHLQFVHDQLDTTILILPVDDWALEIAQRNRAINPFVEYVSKTGNMLALFMPPLFTKPRLTRAL
# Columns and labels:
# [1] = tested on: PKCδ and PKCε; test: Immunoblot of nPKC isoform abundance in cardiomyocytes; assay type: cell-based, rat; conditions: 24 hr stimulation
# Description: (§1) rPMT selectively activates nPKC isoforms. Cardiomyocyte cultures were incubated in culture medium without or with NE (10 μM), rPMT (400 ng/ml) or PMA (100 nM) for 24 hr (Panels A and C) or 5 min (Panel B). Soluble extracts were prepared and separated by SDS-PAGE followed by immunodetection of total PKC isoform abundance with antibodies that are specific for the individual PKC isoforms (Panel A), or phosphorylated forms of PKC (largely PKCε) with a pan-phospho-PKC antibody (Panels B and C), as described in Methods below. GF109203 was included at 5 μM 30 min prior to stimulation as indicated.
# Cells were maintained in culture in the presence of 10% FCS for 96 hr and then switched to serum-free medium for 24 hr prior to the addition of agonists as indicated. For PKC, extracts were prepared and subjected to SDS-PAGE to resolve individual isoforms according to methods described previously (14).
# Specific immunoreactivity for individual PKC isoforms was quantified according to methods described previously. […] Bands were detected by enhanced chemiluminescence and blots were quantified by laser scanning densitometry.
# [2] = tested on: ERK1/2; test: Phospho-ERK1/2 Western blot in cardiomyocytes; assay type: cell-based, rat
# Description: rPMT promotes the activation of ERK1/2, JNK and p38-MAPK cascades. Incubations were for 24 hr in the presence of the indicated concentrations of rPMT. PMA (100 nM, 5 min) and sorbitol ([…], 5 min) were included as positive controls. Cell lysates were subjected to SDS-PAGE followed by Western blotting as described in Methods below. Phosphorylated forms of ERK1/2 (A), p38 MAP kinase (B) or JNK (C) were detected by specific anti-phospho-ERK1/2, -p38 MAP kinase or -JNK antibodies, respectively. Blots were stripped and subjected to immunoblot analysis with total ERK1/2 or p38 MAP kinase to normalize for minor variations in protein loading (Panels A and B). Top: representative autoradiograms (with each lane from a single gel exposed for the same duration). Bottom: quantification of each series of experiments (n=3).
# rPMT transactivation of the EGF receptor in cardiac fibroblasts, but not cardiomyocytes. Neonatal rat cardiomyocytes (Panel A) and cardiac fibroblasts (Panel B) were treated with rPMT (400 ng/ml) for 24 hr or EGF (50 ng/ml) for 5 min without or with AG1478 (2 μM, starting 30 min prior to stimulation). Cell lysates were subjected to SDS-PAGE followed by Western blotting with the anti-phospho-ERK1/2 antibody. Data are from a representative gel, with similar results obtained in 3 separate experiments.
# (§2) Specific immunoreactivity for individual PKC isoforms was quantified according to methods described previously. For assays of MAPKs and AKT, cells were exposed to test agents as indicated in individual experimental protocols, washed three times with ice-cold calcium/magnesium-free Dulbecco's PBS (pH 7.1), scraped into ice-cold extraction buffer [20 mM β-glycerophosphate pH 7.5, 20 mM sodium fluoride, 2 mM EDTA, 0.2 mM sodium vanadate, 10 μg/ml aprotinin, 25 μg/ml leupeptin, 50 μg/ml PMSF, and 0.3% (v/v) β-mercaptoethanol], lysed by sonication, and centrifuged at 10,000 g for 10 min at 4° C. The supernatant was diluted in SDS-PAGE sample buffer, boiled for 5 min, and stored at −70° C. Western blot analysis was performed with antibodies that are selective for the phosphorylated (activated) forms of ERK1/2, p38-MAPK, JNK, AKT, and pan-PKC according to manufacturer's instructions. For each panel in each Figure, the results are from a single gel exposed for a uniform duration. Bands were detected by enhanced chemiluminescence and blots were quantified by laser scanning densitometry.
# [3] = target: T1, PKC-ε; test: Western blot with anti-phospho-PKC antibody in cardiomyocytes; assay type: cell-based; conditions: 400 ng/ml, 24 hr
# Description: as §1
# as §2, with “Western blot analysis was performed with antibodies that are selective for the phosphorylated (activated) forms of ERK1/2, p38-MAPK, JNK, AKT, and pan-PKC according to manufacturer's instructions. For each panel in each Figure, the results are from a single gel exposed for a uniform duration.” left out
# [4] = tested on: cardiomyocytes; test: Cardiomyocyte growth: sarcomeric organization and cell size; assay type: cell-based, rat; conditions: rPMT 400 ng/ml or NE 10 μM, 48 hr, serum-free
# Description: rPMT mimics the effect of norepinephrine to promote cardiomyocyte hypertrophy. Cardiomyocytes were cultured in serum-free medium without or with rPMT (400 ng/ml) or norepinephrine (NE, 10 μM) for 48 hr. Cardiomyocytes were fixed, permeabilized, and stained with monoclonal anti-α-actinin sarcomeric (Panel A, magnification×100) or subjected to Northern blot analysis for measurements of steady-state ANF mRNA expression (Panel B). Effects of rPMT (black bars) and NE (gray bars) vs. vehicle (white bars) on sarcomeric organization (Panel C), cell size (Panel D), and protein synthesis (Panel E) are illustrated (n=3 for each).
# Cardiomyocyte growth was assessed by measuring cell surface area by digitized image analysis. For each experimental point, 7-10 frames/dish were recorded at 40× magnification with a video camera attached to a Nikon microscope which was calibrated with a micrometer.
# Cardiomyocytes were grown on slides precoated with fibronectin. After treatment, cells were fixed with cold methanol and permeabilized with 0.1% Triton X-100 and 0.2% BSA. Cells were incubated with α-actinin monoclonal antibody overnight at 4° C. followed by anti-mouse IgG-Cy3-labeled antibody for 30 min at room temperature. Fluorescence microscopy images were obtained at 100× magnification.
molecule,measurement,setting,value
B1,abundance of PKC-δ and PKC-ε in the particulate fraction,[1],remains relatively preserved
same,abundance of PKCδ and PKCε in the soluble fraction,[1],significantly reduce
same,expression of total ERK1/2 protein,[2],does not significantly alter
same,signaling through the ERK1/2 cascade (phosphorylation of terminal kinase),"[2]; 24 hr, indicated concentrations",dose-dependent increases
same,magnitude of ERK1/2 activation,[2]; comparable to acute stimulation with PMA,quite robust
same,time at which ERK1/2 activation is detectable,[2]; increased progressively for 24 hr,1 h
same,PKC-ε phosphorylation,[3],enhanced
same,cell size (cellular enlargement),[4],induce marked cellular enlargement
same,myofibrillar (sarcomeric) organization,[4],promote myofibrillar organization
